# Values of other authors in PMC4431351.
# Target: MUC1 tandem-repeat synthetic peptide (UniProt P15941)
# Conditions: Probe assembled in 5 mM sodium phosphate pH 7.4, then PBS (10 mM sodium phosphate, 140 mM NaCl, 2.70 mM KCl, pH 7.6), room temperature; cell incubation details …
# UniProt P15941, sequence (P15941 whole entry): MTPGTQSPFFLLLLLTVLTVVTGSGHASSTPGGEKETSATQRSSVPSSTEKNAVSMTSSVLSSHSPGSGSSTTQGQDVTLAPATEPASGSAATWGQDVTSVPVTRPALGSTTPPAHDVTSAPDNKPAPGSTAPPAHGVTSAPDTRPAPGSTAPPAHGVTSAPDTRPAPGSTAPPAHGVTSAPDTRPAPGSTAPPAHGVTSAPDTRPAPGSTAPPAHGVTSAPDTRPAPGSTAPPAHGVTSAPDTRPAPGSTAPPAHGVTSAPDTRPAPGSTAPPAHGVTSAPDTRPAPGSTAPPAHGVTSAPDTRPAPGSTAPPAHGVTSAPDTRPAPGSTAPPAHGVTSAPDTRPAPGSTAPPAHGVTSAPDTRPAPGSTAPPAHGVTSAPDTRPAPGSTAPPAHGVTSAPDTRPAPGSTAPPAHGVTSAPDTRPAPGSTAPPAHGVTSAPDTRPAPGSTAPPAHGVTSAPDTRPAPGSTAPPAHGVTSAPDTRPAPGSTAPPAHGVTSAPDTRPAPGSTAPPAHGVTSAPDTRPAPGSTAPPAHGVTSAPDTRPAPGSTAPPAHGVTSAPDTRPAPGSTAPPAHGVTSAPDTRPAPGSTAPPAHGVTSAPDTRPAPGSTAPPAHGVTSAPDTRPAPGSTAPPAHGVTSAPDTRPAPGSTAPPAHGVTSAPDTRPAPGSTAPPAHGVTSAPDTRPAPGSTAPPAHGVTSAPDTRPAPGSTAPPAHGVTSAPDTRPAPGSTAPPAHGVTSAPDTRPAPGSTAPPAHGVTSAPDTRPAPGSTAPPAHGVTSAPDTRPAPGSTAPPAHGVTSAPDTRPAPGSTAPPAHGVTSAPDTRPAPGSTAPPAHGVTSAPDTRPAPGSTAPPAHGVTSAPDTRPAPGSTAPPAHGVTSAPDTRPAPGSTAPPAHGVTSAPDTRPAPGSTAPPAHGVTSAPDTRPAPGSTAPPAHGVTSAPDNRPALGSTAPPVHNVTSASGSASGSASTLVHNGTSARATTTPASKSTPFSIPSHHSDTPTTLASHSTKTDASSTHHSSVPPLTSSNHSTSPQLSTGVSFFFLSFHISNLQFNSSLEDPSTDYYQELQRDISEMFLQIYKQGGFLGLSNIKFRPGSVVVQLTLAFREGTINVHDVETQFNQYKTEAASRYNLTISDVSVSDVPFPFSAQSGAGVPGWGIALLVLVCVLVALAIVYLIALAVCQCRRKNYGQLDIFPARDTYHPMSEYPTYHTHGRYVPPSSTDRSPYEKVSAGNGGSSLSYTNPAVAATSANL
sequence,measurement,value
GCAGTTGATCCTTTGGATACCCTGG [AptMUC1 (25-mer)],Kd,100 pM
